Source: paper PMC7195491
“And” between values parts separate entries of the source, which are not always exact repeats. Equal entries are not always repeated. Where two headings read alike, the source gives them in different places. Blank lines part the entries; values can stand above or below the substance they belong to.

Tests used:
[1] = target: DIP-α K10Q G4S {K81Q G74S}, extracellular region (Drosophila melanogaster) (UniProt Q9W4R3); experiment: AUC; sedimentation equilibrium, 25 °C, 10 mM Bis-Tris pH 6.6, 150 mM NaCl, detection at 280 nm; global fit (HeteroAnalysis); dimer to monomers; mean of two independent measurements
[2] = target: DIP-α K10Q G4S, extracellular region (Drosophila melanogaster); experiment: AUC; sedimentation equilibrium, 25 °C, 10 mM Bis-Tris pH 6.6, 150 mM NaCl, UV 280 nm, global fit (HeteroAnalysis); dimer to monomers; two runs (n 1, 2) and their average
[3] = target: DIP-α K10Q S32D {K81Q S133D}, extracellular region (Drosophila melanogaster) (UniProt Q9W4R3); experiment: AUC; sedimentation equilibrium, 25 °C, 10 mM Bis-Tris pH 6.6, 150 mM NaCl, detection at 280 nm; global fit (HeteroAnalysis); dimer to monomers; mean of two independent measurements
[4] = target: DIP-α K10Q S32D, extracellular region (Drosophila melanogaster); experiment: AUC; sedimentation equilibrium, 25 °C, 10 mM Bis-Tris pH 6.6, 150 mM NaCl, UV 280 nm, global fit (HeteroAnalysis); dimer to monomers; two runs (n 1, 2) and their average
[5] = target: DIP-α K10Q {K81Q}, extracellular region (Drosophila melanogaster) (UniProt Q9W4R3); experiment: AUC; sedimentation equilibrium, 25 °C, 10 mM Bis-Tris pH 6.6, 150 mM NaCl, detection at 280 nm; global fit (HeteroAnalysis); dimer to monomers; mean of two independent measurements
[6] = target: DIP-α K10Q, extracellular region (Drosophila melanogaster); experiment: AUC; sedimentation equilibrium, 25 °C, 10 mM Bis-Tris pH 6.6, 150 mM NaCl, UV 280 nm, global fit (HeteroAnalysis); dimer to monomers; two runs (n 1, 2) and their average
[7] = target: DIP-α A11T {A82T}, extracellular region (Drosophila melanogaster) (UniProt Q9W4R3); experiment: SPR; Biacore T100, CM4 chip; DIPs and DIP mutants immobilised by amine coupling, Dprs as analytes; 25 °C; 10 mM Tris-HCl pH 7.2, 150 mM NaCl, 1 mM EDTA, 1 mg/mL BSA, 0.01% Tween-20; duplicate responses fit globally to a 1:1 model; Rmax fixed for KDs > 100 μM, lower limit listed for KDs > 300 μM
[8] = target: DIP-α A7K {A78K}, extracellular region (Drosophila melanogaster) (UniProt Q9W4R3); experiment: as above
[9] = target: DIP-α G4A {G74A}, extracellular region (Drosophila melanogaster) (UniProt Q9W4R3); experiment: as above
[10] = target: DIP-α G4L {G74L}, extracellular region (Drosophila melanogaster) (UniProt Q9W4R3); experiment: as above
[11] = target: DIP-α I16A {I91A}, extracellular region (Drosophila melanogaster) (UniProt Q9W4R3); experiment: as above
[12] = target: DIP-α K10Q G4S {K81Q G74S}, extracellular region (Drosophila melanogaster) (UniProt Q9W4R3); experiment: as above
[13] = target: DIP-α K10Q S32D {K81Q S133D}, extracellular region (Drosophila melanogaster) (UniProt Q9W4R3); experiment: as above
[14] = target: DIP-α K10Q {K81Q}, extracellular region (Drosophila melanogaster) (UniProt Q9W4R3); experiment: as above
[15] = target: DIP-α N19D {N94D}, extracellular region (Drosophila melanogaster) (UniProt Q9W4R3); experiment: as above
[16] = target: DIP-α (Drosophila melanogaster); experiment: SPR; Biacore T100, CM4 chip; DIPs and DIP mutants immobilised by amine coupling (760-980 RU), Dprs and Dpr mutants as analytes (three-fold dilution series, up to 81 μM, in some cases up to 27 or 9 μM); 25 °C; 10 mM Tris-HCl pH 7.2, 150 mM NaCl, 1 mM EDTA, 1 mg/mL BSA, 0.01% Tween-20; equilibrium fit, 1:1 model; for KDs > 300 μM a lower limit is listed
[17] = target: DIP-α (Dpr Interacting Protein alpha), extracellular region (Drosophila melanogaster) (UniProt Q9W4R3); experiment: SPR; Biacore T100, CM4 chip; DIPs and DIP mutants immobilised by amine coupling, Dprs as analytes; 25 °C; 10 mM Tris-HCl pH 7.2, 150 mM NaCl, 1 mM EDTA, 1 mg/mL BSA, 0.01% Tween-20; duplicate responses fit globally to a 1:1 model; Rmax fixed for KDs > 100 μM, lower limit listed for KDs > 300 μM
[18] = target: DIP-β (isoformG), extracellular region (Drosophila melanogaster); experiment: as above
[19] = target: DIP-γ (Drosophila melanogaster); experiment: SPR; Biacore T100, CM4 chip; DIPs and DIP mutants immobilised by amine coupling (760-980 RU), Dprs and Dpr mutants as analytes (three-fold dilution series, up to 81 μM, in some cases up to 27 or 9 μM); 25 °C; 10 mM Tris-HCl pH 7.2, 150 mM NaCl, 1 mM EDTA, 1 mg/mL BSA, 0.01% Tween-20; equilibrium fit, 1:1 model; for KDs > 300 μM a lower limit is listed
[20] = target: DIP-γ (Dpr Interacting Protein gamma), extracellular region (Drosophila melanogaster) (UniProt Q9VAR6); experiment: SPR; Biacore T100, CM4 chip; DIPs and DIP mutants immobilised by amine coupling, Dprs as analytes; 25 °C; 10 mM Tris-HCl pH 7.2, 150 mM NaCl, 1 mM EDTA, 1 mg/mL BSA, 0.01% Tween-20; duplicate responses fit globally to a 1:1 model; Rmax fixed for KDs > 100 μM, lower limit listed for KDs > 300 μM
Sequence of DIP-γ (Dpr Interacting Protein gamma), extracellular region (Drosophila melanogaster) (Q9VAR6 entry or part of it): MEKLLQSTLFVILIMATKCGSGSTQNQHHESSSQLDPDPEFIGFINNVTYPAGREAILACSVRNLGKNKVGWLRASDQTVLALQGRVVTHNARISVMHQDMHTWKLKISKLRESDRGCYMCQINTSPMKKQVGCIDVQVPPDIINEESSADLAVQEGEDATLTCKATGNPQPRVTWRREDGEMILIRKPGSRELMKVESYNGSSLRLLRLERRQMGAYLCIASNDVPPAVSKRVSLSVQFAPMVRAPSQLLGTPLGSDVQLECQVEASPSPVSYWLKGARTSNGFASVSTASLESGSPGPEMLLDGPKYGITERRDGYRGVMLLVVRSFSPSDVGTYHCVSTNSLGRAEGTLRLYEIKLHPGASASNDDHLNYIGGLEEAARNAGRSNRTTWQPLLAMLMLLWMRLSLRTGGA

[21] = target: DIP-α (Dpr Interacting Protein alpha), extracellular region (Drosophila melanogaster) (UniProt Q9W4R3); experiment: as above; remark: listed apart in the source

Substance: DIP-α K10Q G4S {K81Q G74S}, extracellular region (from UniProt Q9W4R3 1-554) (domain or fragment)
Kd [1]: 46.3 µM
stoichiometry N [1]: 2

Substance: DIP-α K10Q G4S, extracellular region (domain or fragment)
Kd [2]: 52 µM and 40.6 µM
Kd ([2]; mean): 46.3 µM

Substance: DIP-α K10Q S32D {K81Q S133D}, extracellular region (from UniProt Q9W4R3 1-554) (domain or fragment)
Kd [3]: 64.4 µM
stoichiometry N [3]: 2

Substance: DIP-α K10Q {K81Q}, extracellular region (from UniProt Q9W4R3 1-554) (domain or fragment)
Kd [5]: 19.7 µM
stoichiometry N [5]: 2

Substance: DIP-α K10Q, extracellular region (domain or fragment)
Kd [6]: 17.8 µM and 21.6 µM
Kd ([6]; mean): 19.7 µM

Substance: Dpr10 Q26D {Q138D}, extracellular region (from UniProt M9PF17 1-362) (domain or fragment)
Kd [17]: 19.3 µM

Substance: Dpr10 V31K (domain or fragment)
fold increase of KD over wild-type Dpr10 [16]: 10 fold

Substance: Dpr10 V31K Q29E (domain or fragment)
fold increase of KD over the V31K single mutant [16]: 2 fold

Substance: Dpr10 V31K {V144K}, extracellular region (from UniProt M9PF17 1-362) (domain or fragment)
Kd [18]: 52.3 µM

Substance: Dpr11 K31V (domain or fragment)
Kd [19]: 22.7 µM

Substance: Dpr11 K31V E29Q {K207V E205Q}, extracellular region (from UniProt Q8MRE6 1-360) (domain or fragment)
Kd [21]: > 300 µM
Kd [18]: > 300 µM

Substance: Dpr11 K31V {K207V}, extracellular region (from UniProt Q8MRE6 1-360) (domain or fragment)
Kd [21]: > 300 µM
Kd [18]: > 300 µM

Substance: Dpr11 K31V,E29Q (domain or fragment)
Kd [19]: 131 µM

More lines, now with the values ahead:

Kd [4]: 60.6 µM and 68.3 µM
Kd ([4]; mean): 64.5 µM
Substance: DIP-α K10Q S32D, extracellular region (domain or fragment)

Kd [7]: 10.1 µM
Kd [8]: 0.46 µM
Kd [9]: 1.1 µM
Kd [10]: 23.5 µM
Kd [11]: 80.1 µM
Kd [12]: 101 µM
Kd [13]: 26.2 µM
Kd [14]: 18.4 µM
Kd [15]: 1.05 µM
Substance: Dpr6 (Defective proboscis extension response 6), extracellular region (from UniProt M9PC40 1-390) (domain or fragment)

Kd [16]: 2 µM
Substance: Dpr6 (domain or fragment)

Kd [18]: 71.6 µM
Substance: Dpr10 V31K Q29E {V144K Q142E}, extracellular region (from UniProt M9PF17 1-362) (domain or fragment)

Kd [18]: 27.8 µM
Kd [20]: 17.6 µM
Substance: Dpr11 K31V E29Q G10L {K207V E205Q G157L}, extracellular region (from UniProt Q8MRE6 1-360) (domain or fragment)
